Measured values reported in PMC6686035.

Tests used:
[1] = biological target: CsrA-His6 (Escherichia coli) (UniProt P69913); assay: EMSA; conditions: EMSA: 0.5 nM RNA, 10 mM MgCl2, 100 mM KCl, 32.5 ng yeast RNA, 20 mM DTT, 7.5% glycerol, 4 U SUPERasin, 37 C 30 min (pH not stated), footprint: 2 nM RNA
[2] = biological target: CsrA-His6 (Escherichia coli) (UniProt P69913); assay: RNase T1 footprinting; conditions: EMSA: 0.5 nM RNA, 10 mM MgCl2, 100 mM KCl, 32.5 ng yeast RNA, 20 mM DTT, 7.5% glycerol, 4 U SUPERasin, 37 C 30 min (pH not stated), footprint: 2 nM RNA

CsrA-His6 (Escherichia coli), sequence (P69913 whole entry): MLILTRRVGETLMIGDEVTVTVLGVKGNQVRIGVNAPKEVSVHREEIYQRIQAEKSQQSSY

Substance | Kd [1] [nM] | further results
GAAGAUCAUCGUCAGAAUUGACUCCACGAUCACAUUUCGGACCGGCAGAAAGGAAUUAUUCUGCAAACAGUAAUUAUGGUGUUUUGAUUUAUCUUGCACCUCUCCACUUCUGGAUAUAAGGAUAUUAGGU [ftnB EMSA transcript] | 13 | –
GGGAUCAUCGUCAGAAUUGACUCCACGAUCACAUUUCGGACCGGCAGAAAGGAAUUAUUCUGCAAACAGUAAUUAUGGUGUUUUGAUUUAUCUUGCACCUCUCCACUUCUGGAUAUAAGGAUAUUAGGUAUGGCAACCGCUGGAAUGCUUCUCAAGGAUCC [ftnB footprint RNA (+1 to +152)] | – | binding [2]: binds
GGGUGGAAGCGAAGGAGUCAAAAAAUGAAAGGUGAUACUAAAGUUAUAAAUUAUCUCAACAAACUGUUGGGAAAUGAGCUUGU [bfr EMSA transcript] | 27 | –
bfr EMSA transcript | – | Kd ([1]; 10 mM Mg2+, apparent KD, cooperative equation, single shift): 27 nM
ftnB EMSA transcript | 13 | –
